Experimental data published in patent US20260226143A1 (OTHAIR PROTHENA, published 2026).

Key:
soluble Aβ oligomers = soluble Aβ oligomers (human, partly biotinylated (unlabeled, biotinylated or 9:1 unlabeled:biotinylated preparations)); test: cell-based or functional assay
[1] = target: T1, aggregated Aβ42 (heterogeneous Aβ 42 aggregate mixture) (human); test: competition ELISA, plate coated with aggregated Aβ42; competitor biotinylated hBP
T1 construct: Aβ 42 vortexed in water and kept on a nutator for 48 h at room temperature, then coated on plates; also called Aβ aggregates; heterogeneous aggregated Aβ42 species
Procedure: One mg of Aβ 42 was added to 1 ml of diH2O and was vigorously vortexed and placed on a nutator for 48 hours at room temperature. Plates were coated with 0.5 mg/ml of the heterogeneous Aβ 42 aggregate mixture and blocked, e.g., with 1% BSA/PBS. […] 100 ul of GE Streptavidin HRP diluted 1/10,000 was then added and incubated for 30 minutes. Plates were washed six times with TTBS. Thermo Fisher o-phenylenediamine dihydrochloride (OPD) substrate was prepared fresh per manufacturers direction, and 100 μl per well was added. The reaction was incubated for 15 minutes and the reaction stopped with 50 ul 2N H₂SO₄. […] For FIG. 20A and FIG. 20B, curves and resulting IC₅₀ estimations represent nonlinear three-parameter least squares fit of data. Individual points are the average of triplicate samples (coefficient of variation <20%).

[2] = target: T2, recombinant Aβ1-42 fibrils (human); test: direct ELISA on plate-coated Aβ fibrils, antibody titrated
T2 construct: Fibrils made from HFIP-treated Aβ1-42 (DMSO, 10 mM HCl, 37 C, 24 h; pellet resuspended and sonicated); also called fibril Aβ42; fibril Aβ
Procedure: (§1) Plates were blocked 1% BSA/PBS for 1 hour. […] Plates were washed four times with TBS/Tween 20 and 100 μl of goat anti Human IgG HRP (Jackson ImmunnoResearch Laboratories, Inc, West Grove, PA or Invitrogen, Carlsbad, CA) at 1/5000 dilution was added to each well and incubated 1 hour at room temperature. Plates were wash six times in TBS/Tween 20, and Thermo Fisher o-phenylenediamine dihydrochloride (OPD) tablets and ThermoFisher substrate buffer were prepared per manufacturer's instructions. 100 μl of substrate was added and incubated 15 min. Reaction was stopped with 50 μl H₂SO₄. Plates were read at 490 nm on a molecular devices spectromax. FIG. 9A, and FIG. 21. For FIG. 21, curves and resulting EC₅₀ estimations represent nonlinear three-parameter least squares fit of the data (data shown in Table 7).

[3] = target: T2, recombinant Aβ1-42 fibrils; test: direct ELISA on plate-coated Aβ fibrils; the low end falls to h2831 by the EC50 values of Table 7
Procedure: as §1

[4] = target: T2, recombinant Aβ1-42 fibrils; test: direct ELISA, fibril Abeta plate coat titrated, antibody held constant at 2 ug/ml; unit from the axis 'log ng/ml Abeta' [right panel]
Procedure: Plates were blocked 1% BSA/PBS 1 hour. Antibodies at 2 μg/ml in 0.1% BSA/PBS 0.1% Tween 20 were added in duplicate to the appropriate wells and incubated for 2 hrs at room temperature. Plates were washed 4× with TBS/Tween 20 and then 100 μl of Jackson Goat anti Human IgG HRP 1/5000 dilution was added to each well and incubated 1 hour at room temperature. Plates were wash six times in TBS/Tween 20, and Thermo Fisher o-phenylenediamine dihydrochloride (OPD) tablets and Thermofisher substrate buffer were prepared per manufacturer's instructions. 100 μl of substrate was and incubated 15 min. Reaction was stopped with 50 μl H₂SO₄. Plates were read at 490 nm on a molecular devices spectromax. FIG. 9B, right panel.

[5] = target: T2, recombinant Aβ1-42 fibrils; test: direct ELISA on plate-coated Aβ fibrils; the high end falls to h2726 by the EC50 values of Table 7
Procedure: as §1

T1 sequence (peptide, as listed by the source): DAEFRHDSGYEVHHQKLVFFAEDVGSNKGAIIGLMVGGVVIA
soluble Aβ oligomers (human, partly biotinylated (unlabeled, biotinylated or 9:1 unlabeled:biotinylated preparations)), sequence (peptide, as listed by the source): as above
T2 sequence (peptide, as listed by the source): as above

B1: h2731 (antibody, human IgG1, kappa, V domains shown)
VH: EVQLLESGGGLVQPGGSLRLSCAASGFTFSNYGMSWVRQAPGKGLEWVASIRSGSGRTYYSDNVKGRFTISRDNSKNTLYLQMNSLRAEDTAVYYCVRYDHYSGSSDYWGQGTLVTVSS
VL: DVVMTQSPLSLPVTLGEPASISCKSSQSLLDYDGKTYLNWLLQKPGQSPQRLIYRVTNRDTGVPDRFSGSGSGTDFTLKISRVEAEDVGVYYCWQGTHFPRSFGQGTKVEIKR
notes: Heavy chain with or without the C-terminal lysine
Soluble Aβ oligomers
  IC50 of the reduction of Abeta spots per neuron (% Abeta control, normalized to untreated Abeta): 0.47 µg/mL
[1]
  IC50: 5.02 µg/mL
[2]
  EC50: 0.0367 µg/mL

B2: h2831 (antibody, V domains shown)
VH: EVQLLESGGGLVQPGGSLRLSCAASGFTFSNFGMSWVRQAPGKGLEWVASVRSGSGRTYYSDNVKGRFTISRDNSKNTLYLQMNSLRAEDTAVYYCVRYDHYSGTSDYWGQGTLVTVSS
VL: DVVMTQSPLSLPVTLGEPASISCKSSQSLLDYDGKTYLNWLLQKPGQSPQRLIYRVTNRDTGVPDRFSGSGSGTDFTLKISRVEAEDVGVYYCWQGTHFPRSFGQGTKVEIK
notes: Humanized IgG; only variable domains tied to the name; also called PB-0575
[3]
  fold lower estimated EC50 than aducanumab: 15 to 20 fold
Soluble Aβ oligomers
  IC50 of the reduction of Abeta spots per neuron (% Abeta control, normalized to untreated Abeta): 0.924 µg/mL
  Total Area (area under the curve of % Abeta control against mAb concentration): 6500
[1]
  IC50: 9.91 µg/mL
[2]
  EC50: 0.0489 µg/mL
[4]
  IC50 (as headed in the table; half-maximal concentration of the Abeta fibril coat): 0.412 µg/mL

B3: h2931 (antibody, V domains shown)
VH: EVQLLESGGGLVQPGGSLRLSCAASGFTFSNFGMSWVRQAPGKGLEWVASVRSGSGRTYYSDNVKGRFTISRDNSKNTLYLQMNSLRAEDTAVYYCVRYDHYTGTSDYWGQGTLVTVSS
VL: DVVMTQSPLSLPVTLGEPASISCKSSQSLLDYDGKTYLNWLLQKPGQSPQRLIYRVTNRDTGVPDRFSGSGSGTDFTLKISRVEAEDVGVYYCWQGTHFPRSFGQGTKVEIK
notes: Humanized IgG; only variable domains tied to the name; also called PB-0576
Soluble Aβ oligomers
  IC50 of the reduction of Abeta spots per neuron (% Abeta control, normalized to untreated Abeta): 0.627 µg/mL
  Total Area (area under the curve of % Abeta control against mAb concentration): 8480
[1]
  IC50: 6.9 µg/mL
[2]
  EC50: 0.0449 µg/mL
[4]
  IC50 (as headed in the table; half-maximal concentration of the Abeta fibril coat): 0.335 µg/mL

B4: h2726 (antibody, V domains shown)
VH: EVQLLESGGGLVQPGGSLRLSCAASGFTFSNYGMSWVRQAPGKGLEWVASIRSGSGRTYYSDNVKGRFTISRDNSKNTLYLQMNSLRAEDTAVYYCVRYDHYSGSSDYWGQGTLVTVSS
VL: DVVMTQSPLSLPVTPGEPASISCKSSQSLLDYDGKTYLNWLLQKPGQSPQRLIYKVSNRDSGVPDRFSGSGSGTDFTLKISRVEAEDVGVYYCWQGTHFPRTFGQGTKVEIK
notes: Humanized IgG; also called PB-0573
Soluble Aβ oligomers
  IC50 of the reduction of Abeta spots per neuron (% Abeta control, normalized to untreated Abeta): 1.67 µg/mL
  Total Area (area under the curve of % Abeta control against mAb concentration): 9070
[5]
  fold lower estimated EC50 than aducanumab: 15 to 20 fold
[1]
  IC50: 9.05 µg/mL
[2]
  EC50: 0.0359 µg/mL
[4]
  IC50 (as headed in the table; half-maximal concentration of the Abeta fibril coat): 0.387 µg/mL
